Test results reported in patent publication US20210261685A1 (Alector, published 2021).
Blank lines part the entries; values can stand above or below the binder they belong to.

Legend:
[1] = target: T1, human Axl ECD construct (Full Axl) with linker+His+Avi tag (human, UniProt P30530 26-451); assay: SPR, Carterra LSA, antibody immobilised, construct supernatant injected
T1 construct: tested as Expi293 supernatant; also called ECD domain of human Axl
T1 sequence: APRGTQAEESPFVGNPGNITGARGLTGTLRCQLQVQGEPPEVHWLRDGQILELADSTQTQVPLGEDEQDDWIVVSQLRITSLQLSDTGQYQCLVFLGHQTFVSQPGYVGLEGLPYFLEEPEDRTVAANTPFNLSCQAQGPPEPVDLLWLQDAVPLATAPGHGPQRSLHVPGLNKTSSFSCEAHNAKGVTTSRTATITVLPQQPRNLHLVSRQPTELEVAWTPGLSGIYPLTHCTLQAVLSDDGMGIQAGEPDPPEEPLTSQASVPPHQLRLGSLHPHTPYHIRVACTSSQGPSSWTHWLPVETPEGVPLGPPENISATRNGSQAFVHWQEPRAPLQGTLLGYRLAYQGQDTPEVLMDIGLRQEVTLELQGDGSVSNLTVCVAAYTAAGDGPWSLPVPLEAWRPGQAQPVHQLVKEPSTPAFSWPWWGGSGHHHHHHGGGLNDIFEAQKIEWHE
Protocol: Binding of anti-MerTK antibodies of the present disclosure to these domain-swapped chimera or deletion mutants (prepared as described above) was tested by Surface Plasmon Resonance (SPR) using Carterra LSA. Purified anti-MerTK antibodies were immobilized in duplicate on a HC30M chip (Carterra) by amine coupling, following the manufacturer's instructions (described previously). Supernatants containing the constructs were diluted 1:1 with running buffer containing 0.5 mg/mL BSA (HBS-TE, Carterra) and injected over the immobilized antibodies. The surface was regenerated with 10 mM Glycine pH2.0 after each construct injection. Sensorgrams were analyzed using Carterra Epitope software to identify patterns of construct binding. Loss of binding to MerTK constructs with domains deleted or swapped in from Axl and/or gain of binding to Axl constructs with MerTK domains swapped in were evaluated. Data from these studies was used to construct a domain binding map for anti-MerTK antibodies and their binding to various domains of human MerTK.

[2] = target: T2, Recombinant human MerTK human Fc Chimera protein (R&D systems, Cat #391-MR-100) (human, UniProt Q12866 26-499, limits assumed); assay: competition ELISA, His-ProS on captured MerTK-Fc
T2 construct: Bought; also called recombinant human MerTK protein; MerTK-Fc
T2 sequence: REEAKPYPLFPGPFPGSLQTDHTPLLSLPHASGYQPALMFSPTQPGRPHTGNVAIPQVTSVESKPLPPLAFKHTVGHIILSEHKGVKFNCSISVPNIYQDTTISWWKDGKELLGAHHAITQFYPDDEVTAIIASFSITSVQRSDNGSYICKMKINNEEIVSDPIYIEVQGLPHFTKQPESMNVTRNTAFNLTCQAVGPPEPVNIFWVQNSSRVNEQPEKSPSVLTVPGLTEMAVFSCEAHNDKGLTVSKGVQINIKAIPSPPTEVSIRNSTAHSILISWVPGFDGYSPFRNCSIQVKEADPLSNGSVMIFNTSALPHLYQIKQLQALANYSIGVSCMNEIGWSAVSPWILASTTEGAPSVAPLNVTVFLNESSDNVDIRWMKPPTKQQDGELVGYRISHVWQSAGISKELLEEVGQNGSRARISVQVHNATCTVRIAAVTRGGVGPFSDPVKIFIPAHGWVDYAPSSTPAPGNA
Protocol: Rabbit anti-human IgG polyclonal antibody (Jackson ImmunoResearch, Cat #309-005-008) was captured to a high-protein binding plate at 2 μg/ml 4° C. overnight. After washing with 0.05% Tween20 in PBS three times, 5% BSA in PBS was added for 1 hour. Recombinant human MerTK human Fc Chimera protein (R&D systems, Cat #391-MR-100) was added at 2 μg/ml for 1 hour and the plates were then washed. Anti-MerTK antibodies were titrated to final concentration range of between 66.6 nM to 4 pM and then 40 μl of serially diluted antibody and 40 μl of His tag-conjugated recombinant Gas6 protein (R&D systems, Cat #885-GSB-050) at 3 μg/ml or His tag-conjugated recombinant ProS protein (R&D systems, Cat #9489-PS-100) at 20 μg/ml. After a further incubation for 1 hour, plates were washed and incubated for 1 hour with HRP-conjugated anti-6×His tag antibody (Abcam, Cat #ab1187). Plates were then washed and an HRP substrate (TMB) was used to develop the plates. After sufficient color change was observed, the reaction was stopped by adding 50 μl 2N H₂SO₄ and the OD was measured using a spectrophotometer (BioTek).
From these experiments, IC50 values [nM] were determined using OD450 values obtained from the dose-response curves analyzed with Prism software. Table 14 and Table 15 show IC50 values determined for anti-MerTK antibody blocking of Gas6 ligand binding and ProS ligand binding to MerTK. […] Dashes indicate lack of significant blocking; “n.a.” indicates data not available.

[3] = target: T3, human MerTK extracellular domain (ECD), recombinant (human, UniProt Q12866 21-505); assay: SPR, Carterra LSA, antibody immobilised
T3 construct: also called huMerTK; not shown: polyHis tag or TEVS/Thrombin/murine IgG2a Fc tag
T3 sequence: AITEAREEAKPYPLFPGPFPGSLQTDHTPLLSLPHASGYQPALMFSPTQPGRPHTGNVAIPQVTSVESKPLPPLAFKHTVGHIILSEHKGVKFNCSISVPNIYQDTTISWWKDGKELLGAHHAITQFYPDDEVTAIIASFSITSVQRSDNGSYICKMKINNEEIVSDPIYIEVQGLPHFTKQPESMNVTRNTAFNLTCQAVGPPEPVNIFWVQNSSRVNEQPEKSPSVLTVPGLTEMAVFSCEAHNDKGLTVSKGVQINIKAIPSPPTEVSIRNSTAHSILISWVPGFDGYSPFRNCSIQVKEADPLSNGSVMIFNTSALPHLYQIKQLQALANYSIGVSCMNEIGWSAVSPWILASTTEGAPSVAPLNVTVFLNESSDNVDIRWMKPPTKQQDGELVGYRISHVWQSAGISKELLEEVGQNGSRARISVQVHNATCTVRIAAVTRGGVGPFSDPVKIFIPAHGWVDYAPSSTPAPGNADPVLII
Protocol: (§1) Binding kinetics of human anti-MerTK IgG1 LALAPS antibodies of the present disclosure to human, cyno, and murine MerTK were evaluated using a Carterra LSA instrument (Carterra, Salt Lake City, Utah). Briefly, anti-MerTK antibodies were prepared by diluting to 10 μg/ml in 10 mM Acetate, pH 4.25 (Carterra), at 300 μl/well. A HC200M sensor chip (Carterra) was activated using the single channel flow cell with a 7-minute injection of a 1:1:1 mixture of 100 mM MES pH 5.5, 100 mM sulfo-NHS, 400 mM EDC (all reconstituted in MES pH 5.5; 100 μl of each mixed in vial immediately before running assay). After switching to the multi-channel array flow cell, the antibodies were injected over the activated chip in a 96-spot array for 15 minutes. The remaining unconjugated active groups on the chip were then blocked by injecting 1M Ethanolamine pH 8.5 (Carterra) for 7 minutes using the single channel flow cell.
(§2) After priming with running buffer (HBS-TE, Carterra) with 0.5 mg/ml BSA (Sigma), the immobilized anti-MerTK antibodies were tested for their ability to bind to several forms of recombinant MerTK extracellular domain, including human, cynomolgus, and mouse orthologs as described above. Estimates of affinity were generated by injecting each analyte over the entire antibody array using the single channel flow cell. MerTK analytes were diluted to 33.3, 100, and 300 nM in running buffer, and injected in serial from lowest to highest concentration without regeneration. Two buffer blanks were run between each series (one species per series). Data were processed and analyzed using NextGenKIT high-throughput kinetics analysis software (Carterra).
(§3) The equilibrium dissociation constants (KD) were then calculated from the fitted association and dissociation rate constants (k-on and k-off) for anti-MerTK antibodies of the present disclosure. Binding kinetic analysis was also performed on anti-MerTK antibodies H1 (BioLegend, Clone ID: 590H11G1E3), H2 (R&D systems, Clone ID: 125518), M6 (WO2016/106221), and CDX AB2000-A7 hIgG1 (WO2019/084307).

[4] = target: T4, murine MerTK extracellular domain (ECD), recombinant (mouse, UniProt Q60805 19-497); assay: SPR, Carterra LSA, antibody immobilised
T4 construct: also called moMerTK; mouse MerTK; not shown: polyHis tag or TEVS/Thrombin/murine IgG2a Fc tag
T4 sequence: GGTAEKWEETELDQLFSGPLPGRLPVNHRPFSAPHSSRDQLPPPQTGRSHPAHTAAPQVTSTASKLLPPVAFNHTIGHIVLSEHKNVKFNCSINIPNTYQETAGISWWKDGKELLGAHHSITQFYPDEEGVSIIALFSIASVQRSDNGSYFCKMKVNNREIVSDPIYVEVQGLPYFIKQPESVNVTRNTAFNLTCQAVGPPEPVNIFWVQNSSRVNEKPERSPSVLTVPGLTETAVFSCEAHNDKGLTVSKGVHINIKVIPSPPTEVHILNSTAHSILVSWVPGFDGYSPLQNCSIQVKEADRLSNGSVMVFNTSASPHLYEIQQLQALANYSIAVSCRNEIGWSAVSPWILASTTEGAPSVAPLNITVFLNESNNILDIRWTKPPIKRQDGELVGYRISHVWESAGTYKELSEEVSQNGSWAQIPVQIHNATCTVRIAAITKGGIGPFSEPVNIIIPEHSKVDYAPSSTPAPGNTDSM
Protocol: as §1, §2, §3

[5] = target: T5, cyno MerTK extracellular domain (ECD), recombinant (cynomolgus monkey, UniProt Q12866 21-505 (human entry)); assay: SPR, Carterra LSA, antibody immobilised; LB = Low binding
T5 construct: also called cynomolgus MerTK; not shown: polyHis tag or TEVS/Thrombin/murine IgG2a Fc tag
T5 chain: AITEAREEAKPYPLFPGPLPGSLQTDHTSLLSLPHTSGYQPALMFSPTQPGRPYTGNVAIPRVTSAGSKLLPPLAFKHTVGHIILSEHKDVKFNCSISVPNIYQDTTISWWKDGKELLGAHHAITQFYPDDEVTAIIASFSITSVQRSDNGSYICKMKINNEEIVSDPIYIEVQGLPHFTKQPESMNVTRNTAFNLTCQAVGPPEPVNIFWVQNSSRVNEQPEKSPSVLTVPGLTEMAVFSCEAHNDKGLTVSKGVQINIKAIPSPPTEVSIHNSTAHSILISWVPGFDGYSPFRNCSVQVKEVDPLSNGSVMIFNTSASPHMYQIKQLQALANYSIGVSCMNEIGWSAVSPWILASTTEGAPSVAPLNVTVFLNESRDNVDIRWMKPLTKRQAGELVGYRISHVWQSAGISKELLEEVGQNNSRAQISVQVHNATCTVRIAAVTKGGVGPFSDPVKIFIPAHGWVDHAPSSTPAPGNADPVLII
Protocol: as §1
After priming with running buffer (HBS-TE, Carterra) with 0.5 mg/ml BSA (Sigma), the immobilized anti-MerTK antibodies were tested for their ability to bind to several forms of recombinant MerTK extracellular domain, including human, cynomolgus, and mouse orthologs as described above. […] Data were processed and analyzed using NextGenKIT high-throughput kinetics analysis software (Carterra).

binding result [1]: no binding
B1: MTK-25 (antibody, human IgG1, V domains shown)
VH: EVKLVESEGGLVQPGSSMKLSCTASGFTFSDYYMAWVRQVPEKGLEWVANINYEGSSTYYLGSLKSRFIISRDNAENILYLQMSSLKSEDTATYYCARYYYGSVDYWGQGTTLTVSS
VL: DIVMTQSQKFMSTSVGDRVSITCKASQNVRTTVAWYQQKPGQSPKTLIYLASNRHTGVPDRFTGSGSGTDFTLTISNVQSEDLADYFCLQLWNYPWTFGGGTKLEIK

IC50 [2]: 25.9 nM
B2: MTK-23 (antibody, human IgG1, V domains shown)
VH: QVQLQQSGADLVRPGASVKISCKAFGYTFTNHHINWVKQRPGQGLDWIGNVDPYNDYSTYNQKFKGKATLTVDKSSSTAYMELSSLTSEDSAVYYCARRVYDGFYVDWYFDVWGAGTTVTVSS
VL: DIVMTQSHKFMSTPVGDRVSITCKASRDVSTAVAWFHQKPGQSPKLLIYSASYRSTGVPDRFTGSGSGTDFTFTISSVQAEDLAVYYCQQHYSAPLTFGAGTKLELK

Kd [3]: 54 nM
binding result [4]: no binding (tested: 300 nM)
binding result [5]: binds
binding result [1]: no binding
B3: MTK-22 (antibody, human IgG1, V domains shown)
VH: QVQLQQPGADLVEPGASVKLSCKASGYTFTSYWMHWVKQRPGQGLEWIGEIDPSDSSSNYNQKFKGKATLTVDKSSSTAYMHLNSLTSEDSAVYYCARRYYYGSLYFDNWGQGTTLTVSS
VL: DVVMTQSHKFMSTSVGDRVSITCKASQDVGTAIAWYQQKPGQSPKLLIYWASTRHTGVPDRFTGSRSGTVFTLTISNVQSEDLADYFCQQYTSYPLTFGSGTKLEIK
